What was measured:
MavRel ACT domain = target: T1, MavRel ACT domain (Mycobacterium avium, UniProt A0ACG7XC01); conditions: protein (dimer):valine 1:10 and 1:50; 50 mM Tris pH 8.5, 100 mM NaCl, 5% glycerol; 298 K; cleft at dimer interface
T1 construct: gene relA

[1] = system: MavRel Y473W (full length) (Mycobacterium avium subsp. avium ATCC 25291); assay: tryptophan fluorescence quenching; conditions: 50 mM Tris-HCl pH 8.5, 350 mM NaCl, 1 mM DTT; excitation 295 nm, emission 355 nm; temperature not stated
[2] = system: MavRel TGS Y473W (Mycobacterium avium subsp. avium ATCC 25291); assay: tryptophan fluorescence quenching; conditions: 50 mM Tris-HCl pH 8.5, 350 mM NaCl, 1 mM DTT; excitation 295 nm, emission 355 nm; temperature not stated
SEC = target: the molecule itself; assay: SEC

**Q.** `CC(C)[C@H](N)C(=O)O` [valine] was tested. Which chemical shift perturbation (MavRel ACT domain) did it give?
**A.** Its chemical shift perturbation is “indicates MavRel ACT:valine binding as well as a change in conformation”.

**Q.** Which Kd [1] does the source give for deacylated E. coli tRNA here?
**A.** Its Kd is 1670 nM.

**Q.** What about the Kd [2] of the same molecule?
**A.** The Kd was 650 nM.

B1: MavRel_(51–444) (domain or fragment)
chain: MTAQRSTLNPVLEPLVAMHREIYPKANVQLLQRAFEVADQRHASQLRHSGDPYITHPLAVATILAELGMDTTTLVAALLHDTVEDTGYTLAQLSEEFGEEVGHLVDGVTKLDRVVLGSAAEGETIRKMITAMARDPRVLVIKVADRLHNMRTMRFLPPEKQARKARETLEVIAPLAHRLGMASVKWELEDLSFAILHPKKYDEIVRLVAGRAPSRDTYLAKVRAEIINTLNASKIKATVEGRPKHYWSIYQKMIVKGRDFDDIHDLVGIRILCDEIRDCYAAVGVVHSLWQPMAGRFKDYIAQPRYGVYQSLHTTVVGPEGKPLEVQIRTRDMHRTAEYGIAAHWRYKEAKGRNGVPHPHAAAEIDDMAWMRQLLDWQREAADPGEFLESLRYD
notes: source: E. coli C41(DE3), purified (Ni-NTA, SEC)
**Q.** How did the “stoichiometry N” value (SEC) turn out when B1 was run?
**A.** Its value is 2.

B2: MavRel_(1–444) (domain or fragment, Mycobacterium avium subsp. avium, UniProt A0ACG7XC01 1-444, looked up)
chain: MAEENSAAQALDAPAESPPNPVIETPEPPTESLKTSSSASRRVRARLARRMTAQRSTLNPVLEPLVAMHREIYPKANVQLLQRAFEVADQRHASQLRHSGDPYITHPLAVATILAELGMDTTTLVAALLHDTVEDTGYTLAQLSEEFGEEVGHLVDGVTKLDRVVLGSAAEGETIRKMITAMARDPRVLVIKVADRLHNMRTMRFLPPEKQARKARETLEVIAPLAHRLGMASVKWELEDLSFAILHPKKYDEIVRLVAGRAPSRDTYLAKVRAEIINTLNASKIKATVEGRPKHYWSIYQKMIVKGRDFDDIHDLVGIRILCDEIRDCYAAVGVVHSLWQPMAGRFKDYIAQPRYGVYQSLHTTVVGPEGKPLEVQIRTRDMHRTAEYGIAAHWRYKEAKGRNGVPHPHAAAEIDDMAWMRQLLDWQREAADPGEFLESLRYD
notes: The N-terminal His6 tag is stated for the parent relA construct in pET29b; also called MavRel NTD; N-terminal domain (NTD) of MavRel; source: E. coli C41(DE3), purified (Ni-NTA, SEC)
**Q.** Which “stoichiometry N” value (SEC) does the source give for B2 here?
**A.** Its value is 2.

— publication PMC12561398, “The N-Terminal Extension of the Mycobacterium avium Rel Protein Is a Dual Regulator of the Bifunctional Enzyme and Represents a Novel Target” (Antibiotics, 2025)
